Measurements taken from patent publication US20140274782A1, “AFFINITY REAGENTS AND METHODS FOR DETECTION, PURIFICATION, AND PROTEOMIC ANALYSIS OF METHYLATED PROTEINS” (The Board of Trustees of the Leland Stanford Junior …, priority 2013, published 2014).

Key:
[1] = target: NME1-non-metastatic cells 1, protein (NM23A) expressed in (NME1), transcript variant 2 (human) (UniProt P15531); assay: ProtoArray, GST-treated control array
[2] = target: CDK10-cyclin-dependent kinase (CDC2-like) 10 (CDK10), transcript variant a (human) (UniProt Q15131); assay: ProtoArray, GST-treated control array
[3] = target: PAEP-progestagen-associated endometrial protein (placental protein 14, pregnancy-associated endometrial alpha-2-globulin, alpha uterine protein), transcript variant 2 (PAEP) (human) (UniProt P09466); assay: ProtoArray, GST-treated control array
Chain of PAEP-progestagen-associated endometrial protein (placental protein 14, pregnancy-associated endometrial alpha-2-globulin, alpha uterine protein), transcript variant 2 (PAEP) (human) (P09466 19-180, change not shown): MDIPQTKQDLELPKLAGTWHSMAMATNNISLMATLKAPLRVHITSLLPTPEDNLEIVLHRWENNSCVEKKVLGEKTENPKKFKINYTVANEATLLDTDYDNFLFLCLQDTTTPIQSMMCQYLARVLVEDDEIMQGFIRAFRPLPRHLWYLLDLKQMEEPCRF

[4] = target: DYNC2LI1-dynein, cytoplasmic 2, light intermediate chain 1, mRNA (cDNA clone MGC:12166 IMAGE:3828551), complete cds (human) (UniProt Q8TCX1); assay: ProtoArray, GST-treated control array
[5] = target: LPAL2-lipoprotein, Lp(a)-like 2 (LPAL2), transcript variant 1 (human) (UniProt Q16609); assay: ProtoArray, GST-treated control array
Chain of LPAL2-lipoprotein, Lp(a)-like 2 (LPAL2), transcript variant 1 (human) (Q16609 22-132, change not shown): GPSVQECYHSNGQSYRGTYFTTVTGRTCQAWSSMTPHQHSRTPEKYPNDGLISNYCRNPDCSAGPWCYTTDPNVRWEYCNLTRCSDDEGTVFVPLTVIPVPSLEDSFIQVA

[6] = target: GYPC-glycophorin C (Gerbich blood group) (GYPC), transcript variant 2 (human) (UniProt P04921); assay: ProtoArray, GST-treated control array
Chain of GYPC-glycophorin C (Gerbich blood group) (GYPC), transcript variant 2 (human) (P04921 other isoform, or with tags, fused parts or gaps mutant): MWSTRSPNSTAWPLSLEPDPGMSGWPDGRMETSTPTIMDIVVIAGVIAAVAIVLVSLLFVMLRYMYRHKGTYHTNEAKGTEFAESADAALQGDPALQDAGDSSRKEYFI

[7] = target: LARP6-La ribonucleoprotein domain family, member 6 (LARP6), transcript variant 2 (human) (UniProt Q9BRS8); assay: ProtoArray, GST-treated control array
Chain of LARP6-La ribonucleoprotein domain family, member 6 (LARP6), transcript variant 2 (human) (Q9BRS8 other isoform, or with tags, fused parts or gaps mutant): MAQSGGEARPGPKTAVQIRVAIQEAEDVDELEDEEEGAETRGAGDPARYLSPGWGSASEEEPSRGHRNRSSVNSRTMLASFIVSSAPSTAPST

[8] = target: WDR45-WD repeat domain 45 (WDR45), transcript variant 1 (human) (UniProt Q9Y484); assay: ProtoArray, GST-treated control array
Chain of WDR45-WD repeat domain 45 (WDR45), transcript variant 1 (human) (Q9Y484 other isoform, or with tags, fused parts or gaps mutant): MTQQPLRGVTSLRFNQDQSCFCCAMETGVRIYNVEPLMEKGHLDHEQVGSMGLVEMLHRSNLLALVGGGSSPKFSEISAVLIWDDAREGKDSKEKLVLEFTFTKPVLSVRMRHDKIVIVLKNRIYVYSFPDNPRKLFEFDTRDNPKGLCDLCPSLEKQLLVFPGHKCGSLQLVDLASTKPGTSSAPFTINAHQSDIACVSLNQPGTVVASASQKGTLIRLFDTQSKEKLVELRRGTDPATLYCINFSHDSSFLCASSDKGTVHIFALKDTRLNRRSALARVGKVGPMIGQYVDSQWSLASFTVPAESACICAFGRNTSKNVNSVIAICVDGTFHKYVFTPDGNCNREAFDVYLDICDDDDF

[9] = target: RTN1-reticulon 1 (RTN1), transcript variant 3 (human) (UniProt Q16799); assay: ProtoArray, GST-treated control array
Chain of RTN1-reticulon 1 (RTN1), transcript variant 3 (human) (Q16799 other isoform, or with tags, fused parts or gaps mutant): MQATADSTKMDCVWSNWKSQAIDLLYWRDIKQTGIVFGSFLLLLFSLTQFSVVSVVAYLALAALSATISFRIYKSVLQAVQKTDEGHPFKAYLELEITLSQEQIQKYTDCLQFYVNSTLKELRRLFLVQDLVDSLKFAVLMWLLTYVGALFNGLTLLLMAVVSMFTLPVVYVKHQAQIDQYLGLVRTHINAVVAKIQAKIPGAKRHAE

[10] = target: CALN1-calneuron 1 (CALN1), transcript variant 1 (human) (UniProt Q9BXU9); assay: ProtoArray, GST-treated control array
Chain of CALN1-calneuron 1 (CALN1), transcript variant 1 (human) (Q9BXU9 whole entry, change not shown): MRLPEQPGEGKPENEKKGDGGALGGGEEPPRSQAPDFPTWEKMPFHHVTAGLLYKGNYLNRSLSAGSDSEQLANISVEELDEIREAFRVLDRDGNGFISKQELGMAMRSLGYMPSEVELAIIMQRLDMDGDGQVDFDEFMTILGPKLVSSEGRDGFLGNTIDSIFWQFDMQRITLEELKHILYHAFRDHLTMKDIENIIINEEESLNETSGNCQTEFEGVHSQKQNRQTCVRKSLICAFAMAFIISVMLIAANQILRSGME

[11] = target: PHF20L1-PHD finger protein 20-like 1 (PHF20L1), transcript variant 3 (human) (UniProt A8MW92); assay: ProtoArray, GST-treated control array
[12] = target: VPS29-vacuolar protein sorting 29 homolog (S. cerevisiae) (VPS29), transcript variant 1 (human) (UniProt Q9UBQ0); assay: ProtoArray, GST-treated control array
[13] = target: ZNF695-zinc finger protein 695 (ZNF695) (human) (UniProt Q8IW36); assay: ProtoArray, GST-treated control array
[14] = target: PPARG-peroxisome proliferator-activated receptor gamma (PPARG), transcript variant 4 (human) (UniProt P37231); assay: ProtoArray, GST-treated control array
[15] = target: GPX5-glutathione peroxidase 5 (epididymal androgen-related protein) (GPX5), transcript variant 2, mRNA. (human) (UniProt O75715); assay: ProtoArray, GST-treated control array
Chain of GPX5-glutathione peroxidase 5 (epididymal androgen-related protein) (GPX5), transcript variant 2, mRNA. (human) (O75715 other isoform, or with tags, fused parts or gaps mutant): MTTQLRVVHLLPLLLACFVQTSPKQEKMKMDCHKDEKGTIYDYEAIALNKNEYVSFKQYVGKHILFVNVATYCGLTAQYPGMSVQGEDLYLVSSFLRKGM

[16] = target: AP1S1-adaptor-related protein complex 1, sigma 1 subunit (AP1S1), transcript variant 1 (human) (UniProt P61966); assay: ProtoArray, GST-treated control array
Chain of AP1S1-adaptor-related protein complex 1, sigma 1 subunit (AP1S1), transcript variant 1 (human) (P61966 whole entry, change not shown, the tested form may be a part, one chain of several): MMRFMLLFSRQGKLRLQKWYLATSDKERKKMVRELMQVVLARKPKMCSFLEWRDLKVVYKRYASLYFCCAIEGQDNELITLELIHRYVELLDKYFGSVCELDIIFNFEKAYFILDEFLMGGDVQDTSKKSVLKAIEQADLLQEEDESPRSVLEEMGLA

[17] = target: TEAD4-TEA domain family member 4 (TEAD4), transcript variant 3 (human) (UniProt Q15561); assay: ProtoArray, GST-treated control array
Chain of TEAD4-TEA domain family member 4 (TEAD4), transcript variant 3 (human) (Q15561 130-434, change not shown): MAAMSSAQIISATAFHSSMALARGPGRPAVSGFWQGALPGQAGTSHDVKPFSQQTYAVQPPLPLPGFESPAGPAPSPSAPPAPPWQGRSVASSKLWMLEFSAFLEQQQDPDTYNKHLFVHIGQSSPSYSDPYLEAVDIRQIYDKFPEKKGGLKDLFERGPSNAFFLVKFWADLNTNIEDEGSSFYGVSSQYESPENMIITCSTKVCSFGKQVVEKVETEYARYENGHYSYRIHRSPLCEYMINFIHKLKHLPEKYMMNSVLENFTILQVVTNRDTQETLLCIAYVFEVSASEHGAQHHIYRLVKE

[18] = target: NME7-non-metastatic cells 7, protein expressed in (nucleoside-diphosphate kinase) (NME7), transcript variant 2 (human) (UniProt Q9Y5B8); assay: ProtoArray, GST-treated control array
Chain of NME7-non-metastatic cells 7, protein expressed in (nucleoside-diphosphate kinase) (NME7), transcript variant 2 (human) (Q9Y5B8 37-376, change not shown): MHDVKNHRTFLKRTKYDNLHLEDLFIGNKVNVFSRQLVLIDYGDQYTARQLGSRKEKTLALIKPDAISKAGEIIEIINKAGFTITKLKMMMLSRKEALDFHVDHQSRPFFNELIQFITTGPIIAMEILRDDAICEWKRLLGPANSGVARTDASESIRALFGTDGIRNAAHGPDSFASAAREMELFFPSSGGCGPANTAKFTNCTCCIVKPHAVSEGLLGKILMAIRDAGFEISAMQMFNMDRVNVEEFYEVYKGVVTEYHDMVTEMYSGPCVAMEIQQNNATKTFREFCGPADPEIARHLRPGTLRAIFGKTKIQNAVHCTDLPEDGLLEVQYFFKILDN

[19] = target: MRPL21-mitochondrial ribosomal protein L21 (MRPL21), nuclear gene encoding mitochondrial protein, transcript variant 1 (human) (UniProt Q7Z2W9); assay: ProtoArray, GST-treated control array
[20] = target: CRB3-crumbs homolog 3 (Drosophila) (CRB3), transcript variant 2 (human) (UniProt Q9BUF7); assay: ProtoArray, GST-treated control array
Chain of CRB3-crumbs homolog 3 (Drosophila) (CRB3), transcript variant 2 (human) (Q9BUF7 27-120, change not shown): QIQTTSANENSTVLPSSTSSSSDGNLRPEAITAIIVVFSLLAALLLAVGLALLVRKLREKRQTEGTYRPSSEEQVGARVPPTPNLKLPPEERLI

[21] = target: DNTT-deoxynucleotidyltransferase, terminal (DNTT), transcript variant 1 (human) (UniProt P04053); assay: ProtoArray, GST-treated control array
Chain of DNTT-deoxynucleotidyltransferase, terminal (DNTT), transcript variant 1 (human) (P04053 whole entry, change not shown): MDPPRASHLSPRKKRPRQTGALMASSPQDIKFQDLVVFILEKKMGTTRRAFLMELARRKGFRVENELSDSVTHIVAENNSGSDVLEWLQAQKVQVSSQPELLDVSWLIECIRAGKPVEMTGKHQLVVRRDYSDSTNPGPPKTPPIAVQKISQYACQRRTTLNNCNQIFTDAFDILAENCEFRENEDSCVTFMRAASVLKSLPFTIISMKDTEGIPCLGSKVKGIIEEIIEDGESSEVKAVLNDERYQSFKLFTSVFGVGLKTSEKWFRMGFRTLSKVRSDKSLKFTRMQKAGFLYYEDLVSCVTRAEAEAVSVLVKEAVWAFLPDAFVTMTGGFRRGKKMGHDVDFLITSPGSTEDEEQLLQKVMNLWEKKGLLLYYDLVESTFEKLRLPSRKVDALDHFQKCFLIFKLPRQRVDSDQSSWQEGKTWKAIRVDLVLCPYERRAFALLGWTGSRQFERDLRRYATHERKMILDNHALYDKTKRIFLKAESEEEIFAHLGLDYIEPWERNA

[22] = target: C1QTNF6-C1q and tumor necrosis factor related protein 6 (C1QTNF6), transcript variant 1 (human) (UniProt Q9BXI9); assay: ProtoArray, GST-treated control array
Chain of C1QTNF6-C1q and tumor necrosis factor related protein 6 (C1QTNF6), transcript variant 1 (human) (Q9BXI9 47-278, change not shown): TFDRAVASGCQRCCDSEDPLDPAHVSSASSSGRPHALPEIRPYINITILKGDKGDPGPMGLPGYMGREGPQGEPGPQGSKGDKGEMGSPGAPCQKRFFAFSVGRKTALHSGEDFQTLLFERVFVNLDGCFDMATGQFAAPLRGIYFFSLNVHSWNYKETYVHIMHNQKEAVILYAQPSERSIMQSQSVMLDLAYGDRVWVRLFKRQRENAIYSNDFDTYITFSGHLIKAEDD

[23] = target: ACSL4-acyl-CoA synthetase long-chain family member 4 (ACSL4), transcript variant 2 (human) (UniProt O60488); assay: ProtoArray, GST-treated control array
Chain of ACSL4-acyl-CoA synthetase long-chain family member 4 (ACSL4), transcript variant 2 (human) (O60488 whole entry, change not shown): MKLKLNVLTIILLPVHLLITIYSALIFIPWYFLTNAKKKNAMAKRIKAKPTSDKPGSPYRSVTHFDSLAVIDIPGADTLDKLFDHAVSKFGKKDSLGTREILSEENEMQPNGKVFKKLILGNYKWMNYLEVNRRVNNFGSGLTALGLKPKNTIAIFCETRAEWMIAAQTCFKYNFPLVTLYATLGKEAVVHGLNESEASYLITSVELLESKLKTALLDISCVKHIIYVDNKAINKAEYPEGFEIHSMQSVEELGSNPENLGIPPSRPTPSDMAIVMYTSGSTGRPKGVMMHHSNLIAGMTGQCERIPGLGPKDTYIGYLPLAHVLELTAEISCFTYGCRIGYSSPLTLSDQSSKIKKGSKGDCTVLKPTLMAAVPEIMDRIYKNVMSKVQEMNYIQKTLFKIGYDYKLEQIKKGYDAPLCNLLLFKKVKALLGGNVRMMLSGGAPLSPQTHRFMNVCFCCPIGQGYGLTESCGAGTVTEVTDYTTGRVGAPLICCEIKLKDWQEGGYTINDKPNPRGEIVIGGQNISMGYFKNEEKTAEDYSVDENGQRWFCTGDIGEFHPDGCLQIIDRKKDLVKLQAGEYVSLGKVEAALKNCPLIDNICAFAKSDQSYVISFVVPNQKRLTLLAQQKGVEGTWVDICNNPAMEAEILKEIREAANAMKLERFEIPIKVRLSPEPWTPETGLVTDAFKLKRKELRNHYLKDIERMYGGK

[24] = target: T1, TMEM32-transmembrane protein 32 (TMEM32) (human) (UniProt Q8N4V1); assay: ProtoArray, GST-treated control array
T1 sequence (looked up): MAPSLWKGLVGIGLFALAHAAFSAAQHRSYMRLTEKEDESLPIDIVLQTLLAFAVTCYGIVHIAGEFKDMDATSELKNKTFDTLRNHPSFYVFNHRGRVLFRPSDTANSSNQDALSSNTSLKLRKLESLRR

[25] = target: ARL6IP1, G9a-methylated (human) (UniProt Q15041); assay: ProtoArray methylated with G9a SET domain
Chain of ARL6IP1, G9a-methylated (human) (Q15041 whole entry, the tested form may be a part): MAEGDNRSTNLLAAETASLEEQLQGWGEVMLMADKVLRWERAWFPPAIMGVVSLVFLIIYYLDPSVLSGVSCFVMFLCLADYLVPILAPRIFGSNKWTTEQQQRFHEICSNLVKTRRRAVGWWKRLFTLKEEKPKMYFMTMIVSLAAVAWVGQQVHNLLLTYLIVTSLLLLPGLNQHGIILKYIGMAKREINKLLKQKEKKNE

[26] = target: AP1S1, G9a-methylated (human) (UniProt P61966); assay: ProtoArray methylated with G9a SET domain
Chain of AP1S1, G9a-methylated (human) (P61966 whole entry, the tested form may be a part): as the sequence (P61966 whole entry, change not shown, the tested form may be a part, one chain of several) above

[27] = target: PAEP, G9a-methylated (human) (UniProt P09466); assay: ProtoArray methylated with G9a SET domain
Chain of PAEP, G9a-methylated (human) (P09466 19-180 limits assumed): as the sequence (P09466 19-180, change not shown) above

[28] = target: C1QTNF6, G9a-methylated (human) (UniProt Q9BXI9); assay: ProtoArray methylated with G9a SET domain
Chain of C1QTNF6, G9a-methylated (human) (Q9BXI9 47-278 limits assumed): as the sequence (Q9BXI9 47-278, change not shown) above

Chain of NME1-non-metastatic cells 1, protein (NM23A) expressed in (NME1), transcript variant 2 (human) (P15531 whole entry, change not shown): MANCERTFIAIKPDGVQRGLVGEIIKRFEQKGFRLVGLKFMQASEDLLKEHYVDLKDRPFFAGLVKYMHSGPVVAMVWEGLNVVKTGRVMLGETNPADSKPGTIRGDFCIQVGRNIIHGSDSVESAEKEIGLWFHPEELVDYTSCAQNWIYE

GST Average SNR [1]: 1.06
GST Average SNR [2]: 0.366
GST Average SNR [3]: 0.998
GST Average SNR [4]: -0.778
GST Average SNR [5]: 0.282
GST Average SNR [6]: 0.081
GST Average SNR [7]: -1.03
GST Average SNR [8]: 1.35
GST Average SNR [9]: 0.954
GST Average SNR [10]: -0.055
GST Average SNR [11]: 1.13
GST Average SNR [12]: 1.09
GST Average SNR [13]: 1.5
GST Average SNR [14]: -0.436
GST Average SNR [15]: -0.0425
GST Average SNR [17]: 0.753
GST Average SNR [18]: 0.543
GST Average SNR [19]: 1.41
GST Average SNR [20]: -0.25
GST Average SNR [21]: 0.378
GST Average SNR [23]: 1.41
GST Average SNR [24]: 1.5
G9a Average SNR [25]: 21.8
G9a Average SNR [26]: 16.6
G9a Average SNR [27]: 17.5
G9a Average SNR [28]: 16.4
Substance: 3× Flag-3×MBT (designed binder)
GST Average SNR [16]: 1.2
GST Average SNR [22]: -0.38
